Results on one variant are retold here after IntAct's records for PubMed 19171758.

To fix the notation:
B1: BAR/IMD domain-containing adapter protein 2 (Homo sapiens), Q9UQB8-4 (parent)
chain: MSLSRSEEMHRLTENVYKTIMEQFNPSLRNFIAMGKNYEKALAGVTYAAKGYFDALVKMGELASESQGSKELGDVLFQMAEVHRQIQNQLEEMLKSFHNELLTQLEQKVELDSRYLSAALKKYQTEQRSKGDALDKCQAELKKLRKKSQGSKNPQKYSDKELQYIDAISNKQGELENYVSDGYKTALTEERRRFCFLVEKQCAVAKNSAAYHSKGKELLAQKLPLWQQACADPSKIPERAVQLMQQVASNGATLPSALSASKSNLVISDPIPGAKPLPVPPELAPFVGRMSAQESTPIMNGVTGPDGEDYSPWADRKAAQPKSLSPPQSQSKLSDSYSNTLPVRKSVTPKNSYATTENKTLPRSSSMAAGLERNGRMRVKAIFSHAAGDNSTLLSFKEGDLITLLVPEARDGWHYGESEKTKMRGWFPFSYTRVLDSDGSDRLHMSLQQGKSSSTGNLLDKDDLAIPPPDYGAASRAFPAQTASGFKQRPYSVAVPAFSQGLDDYGARSMSSGSGTLVSTV

Variants of B1 are the subject of this assay. The conditions noted are these: with rac1_human RAC1, P63000.
Take R11E;K143E: the “effect of a mutation on the interaction” value is “disrupting interaction”.
